Data on one molecule can be found in patent publication US20210246218A1 (LYVGEN BIOPHARMA SUZHOU, published 2021).

Values joined by “and” are separate entries in the source; they are usually repeats but may differ in a detail not shown here. Identical values can stand only once.

Test [1] has as its target T1, cynomolgus monkey CD137 on cells (cynomolgus monkey, UniProt A9YYE7 24-254).
T1 construct: whole, on cells; also called CHO-cynomolgus monkey CD137
In words: flow cytometry on CHO cells over-expressing cynomolgus CD137; average, n=6. The protocol:
(§1) CHO cells over-expressing human or cynomolgus monkey CD137 and CHO parental cells were harvested by centrifugation at 1000 g for 3 minutes. The cells were resuspended in ice cold assay buffer at 2*10\hat{ }6/mL and transferred to 96-well V-bottom plate with 100 μL/well. […] The plate was mixed and incubated in the dark for 2 hours at 4° C. The cells were washed 3 times by centrifugation at 1000 g for 3 min and resuspended in ice cold assay buffer containing goat F(ab′)₂ anti-human IgG-Fc (PE), 100 μL/well. The plate was incubated in the dark for another 1 hour at 4° C. The cells were washed 2 times by centrifugation at 1000 g for 3 min and resuspended in ice cold assay buffer containing 2% PFA. The cells were then subjected to the flow cytometer immediately.
(§2) Mean fluorescence intensity (MFI) was calculated from the total cell population in the FCM experiments. Graphpad 7.0, “[Agonist] vs. response—Variable slope (four parameters)” was used to plot the binding MFI in dose response and to calculate FCM binding EC₅₀ values.
On the technique in general: Flow cytometry measures light scatter and fluorescence of single cells or particles in a stream.

In test [2] the target is T2, human FcγRI on CHO-K1 cells (human, UniProt P12314 16-374).
T2 construct: whole, on cells; also called CHO-K1-huFcγRI; CHO-huFcγRIA
In words: flow cytometry on CHO-huFcγRIA cells, PE anti-human Fc F(ab')2. As for the experimental part: The plate was mixed and incubated in the dark for 2 hours at 4° C. […] The plate was incubated in the dark for another 1 hour at 4° C. The cells were washed 2 times by centrifugation at 1000 g for 3 min and resuspended in ice cold assay buffer containing 2% PFA.

For test [3], the target named is T3, human FcγRIIA-His131 on CHO-K1 cells (human, UniProt P12318 34-317).
T3 construct: whole, on cells; Allotype His131; also called CHO-K1-huFcγRIIA-His131; CHO-huFcγRIIA-H131
T3 sequence (looked up): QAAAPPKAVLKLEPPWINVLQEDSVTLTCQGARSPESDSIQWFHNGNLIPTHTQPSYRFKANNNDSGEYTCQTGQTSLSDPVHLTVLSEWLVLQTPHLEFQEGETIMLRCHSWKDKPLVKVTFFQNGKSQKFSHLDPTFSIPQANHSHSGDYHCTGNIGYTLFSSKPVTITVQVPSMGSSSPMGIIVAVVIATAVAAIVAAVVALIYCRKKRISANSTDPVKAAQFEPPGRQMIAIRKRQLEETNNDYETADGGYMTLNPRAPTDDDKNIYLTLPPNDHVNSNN
In words: flow cytometry on CHO-huFcγRIIA-H131 cells, PE anti-human Fc F(ab')2. The protocol:
The plate was mixed and incubated in the dark for 2 hours at 4° C.

The target in test [4] is T4, Ly052.
T4 chain: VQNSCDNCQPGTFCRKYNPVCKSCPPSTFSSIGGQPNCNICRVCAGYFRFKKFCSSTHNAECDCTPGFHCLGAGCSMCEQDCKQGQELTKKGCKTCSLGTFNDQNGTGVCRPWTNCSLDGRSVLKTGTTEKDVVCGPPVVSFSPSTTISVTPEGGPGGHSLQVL
In words: ELISA, CD137 protein coated, clone 3712 titrated; flat curve (see non_binding). The protocol: For the data shown in FIGS. 16C-D, chimeric CD137 receptor protein samples were diluted in DPBS to 5 μg/mL and then coated onto an ELISA plate (Corning, Catalog number: 9018, high binding) at 50 μL (0.25 μg) per well, and incubated at 4° C. overnight. The plate was decanted and washed once; assay diluent was added at 200 μL/well. After a 1-hour incubation at room temperature, the plate was washed with PBST one time. […] The plate was incubated 1 hour at room temperature and then washed three times with PBST. Goat anti-human IgG-H+L HRP-conjugated at 1:100,000 dilution or goat anti-mouse IgG (H+L) secondary antibody, HRP, 10 at 1:50,000 dilution was added to the plate at 100 μL/well. The plate was incubated 1 hour at room temperature followed by washing with PBST four times. The TMB substrate solution was added 100 μL/well. The color was permitted to develop for 15 minutes and then 100 μL/well 2N H2SO4 was added to terminate the reaction. Absorbance at 450 nm and 620 nm was determined by a Tecan F200 Pro reader.
A general note: An ELISA detects its analyte on a solid surface through an enzyme-linked reagent.

Test [5] concerns the target T5, recombinant human CD137 receptor protein (human, UniProt Q07011 24-186).
T5 construct: Coated on ELISA plates; also called recombinant human CD137 protein
In words: ELISA, clone 3712-IgG1v coated, huCD137 titrated (EC50 is a concentration of the CD137 protein); full sigmoid, plateau about 2.2.

Test [6] deals with T1, cynomolgus monkey CD137 on cells. Put plainly: flow cytometry on CHO-cynomolgus monkey CD137 cells, PE anti-human IgG-Fc. The protocol: as §1, §2
Test [7] has as its target T6, Ly048.
T6 chain: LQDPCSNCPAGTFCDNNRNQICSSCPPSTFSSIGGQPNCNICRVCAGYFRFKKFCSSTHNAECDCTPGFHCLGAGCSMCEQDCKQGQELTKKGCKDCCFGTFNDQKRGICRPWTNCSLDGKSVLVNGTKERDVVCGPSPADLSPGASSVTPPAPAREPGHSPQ
Put plainly: ELISA, clone 3712-IgG1v coated, CD137 protein titrated (EC50 is a concentration of the CD137 protein); curve only begins to rise: about 0.63 at 100000 ng/mL, no plateau, the fitted EC50 lies beyond the range tested. As for the experimental part: The plate was decanted and washed once; assay diluent was added 200 μL/well. After one-hour incubation at room temperature, the plate was washed with PBST one time. CD137 receptor human/mouse chimeras were diluted in assay diluent to 100 or 10 μg/mL, and then a 4-fold serial dilution in assay diluent for 11 points to final concentrations of 100000, 25000, 6250, 1562.5, 390.63, 97.66, 24.41, 6.10, 1.53, 0.38 and 0.095 ng/mL or 10000, 2500, 625, 156.25, 39.06, 9.77, 2.44, 0.61, 0.15, 0.038 and 0.0095 ng/mL. The diluted CD137 receptor was added to the assay plate, 50 μL/well, in duplicate. The plate was incubated one hour at room temperature and then washed three times with PBST. Goat anti-human IgG-H+L HRP conjugated at 1:100,000 20 dilution was added to the plate at 100 μL/well. The plate was then incubated one hour at room temperature followed by washing with PBST four times. The TMB substrate solution was added at 100 μL/well. The color was allowed to develop for 15 minutes, and was stopped with 100 μL/well 2N H2SO4. Absorbance at 450 nm and 620 nm was determined by a Tecan F200 Pro reader.

T1 sequence (A9YYE7 entry or part of it): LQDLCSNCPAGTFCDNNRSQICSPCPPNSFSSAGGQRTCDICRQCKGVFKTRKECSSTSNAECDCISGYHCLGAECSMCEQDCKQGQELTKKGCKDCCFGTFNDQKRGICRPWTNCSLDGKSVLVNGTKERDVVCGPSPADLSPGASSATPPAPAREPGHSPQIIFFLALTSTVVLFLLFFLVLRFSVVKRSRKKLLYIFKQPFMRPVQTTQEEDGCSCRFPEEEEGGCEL
T5 sequence (Q07011 24-186 limits assumed): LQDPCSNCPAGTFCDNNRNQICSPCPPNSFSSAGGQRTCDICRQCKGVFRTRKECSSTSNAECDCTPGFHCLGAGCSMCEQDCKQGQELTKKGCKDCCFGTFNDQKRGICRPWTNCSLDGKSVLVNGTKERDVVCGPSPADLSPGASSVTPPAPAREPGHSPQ
T2 sequence (P12314 16-374): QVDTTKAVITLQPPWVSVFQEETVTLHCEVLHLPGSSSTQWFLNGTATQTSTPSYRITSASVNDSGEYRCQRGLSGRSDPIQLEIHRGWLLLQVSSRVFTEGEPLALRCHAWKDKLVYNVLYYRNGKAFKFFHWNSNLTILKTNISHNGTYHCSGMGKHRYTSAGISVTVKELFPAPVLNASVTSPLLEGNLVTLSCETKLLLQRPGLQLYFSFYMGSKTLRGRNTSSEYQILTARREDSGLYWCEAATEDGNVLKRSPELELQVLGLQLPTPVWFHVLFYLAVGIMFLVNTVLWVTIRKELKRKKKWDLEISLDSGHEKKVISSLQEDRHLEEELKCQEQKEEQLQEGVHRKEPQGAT

B1: Clone 3712-IgG1v (IgG1v/kappa) (antibody)
heavy: QVQLVQSGAEVKKPGASVKVSCKASGYTFAGFEMHWVRQAPGQGLEWMGAIDPKTGGTDYNQKFKDRVTMTRDTSISTAYMELSRLRSDDTAVYYCARDLGYFDVWGQGTLVTVSSASTKGPSVFPLAPSSKSTSGGTAALGCLVKDYFPEPVTVSWNSGALTSGVHTFPAVLQSSGLYSLSSVVTVPSSSLGTQTYICNVNHKPSNTKVDKKVEPKSCDKTHTCPPCPAPELLGPSVFLFPPKPKDTLMISRTPEVTCVVVDVEHEDPEVKFNWYVDGVEVHNAKTKPREEQYNSTYRVVSVLTVLHQDWLNGKEYKCKVSNKALPAPIEKTISKAKGQPREPQVYTLPPSREEMTKNQVSLTCLVKGFYPSDIAVEWESNGQPENNYKTTPPVLDSDGSFFLYSKLTVDKSRWQQGNVFSCSVMHEALHNHYTQKSLSLSPGK
light: DIQMTQSPSSLSASVGDRVTITCRASQDIRSNLNWYQQKPGGAVKLLIYYTSRLHSGVPSRFSGSGSGTDYTLTISSLQPEDFATYFCQQSEKLPRTFGGGTKVEIRRTVAAPSVFIFPPSDEQLKSGTASVVCLLNNFYPREAKVQWKVDNALQSGNSQESVTEQDSKDSTYSLSSTLTLSKADYEKHKVYACEVTHQGLSSPVTKSFNRGEC
notes: copies: 2 + 2
For orientation: EC50 means the midpoint of the concentration-response curve. The term EC50 (read off the curve) denotes the concentration needed to bring the measured effect to its halfway point. Take B1: the EC50 was 0.26 nM and 0.0369 µg/mL in test [1]; 0.000749 µg/mL in test [4]; 0.0669 µg/mL in test [5]; 486 µg/mL in test [7]. The results for the binding result in test [2] and in test [3] were “no binding (tested: 10 µg/mL)” and “no binding (tested: 100 µg/mL)”, respectively. For the same molecule, in test [6], the 50% effective concentration (EC50 (read off the curve)) is ~0.03 µg/mL.
